In PMC5066947, “Voltage-Dependent Anion Channel-1, a Possible Ligand of Plasminogen Kringle 5” (PLoS ONE, 2016):

Biological target: T1, recombinant voltage-dependent anion channel-1 (human, UniProt P21796 1-283)
T1 construct: human voltage-dependent anion channel-1; cDNA amplified from pCMV6-XL5-VDAC-1 with primers designed on NM_003374, cloned into pET-28b by XhoI and NheI; band at about 32 kDa on SDS-PAGE; also called VDAC-1; hVDAC-1
Test: SPR; Kringle 5 coupled to a CM5 sensor chip by amino coupling (180 RU); VDAC-1 injected at 0 to 280.00 μmol·L^-1; uncoupled cell as reference; 25°C, 40 μl·min^-1; regeneration with 10 mmol·L^-1 HEPES pH 7.4, 300 mmol·L^-1 NaCl
Settings: both partners purified

T1 sequence (P21796 whole entry): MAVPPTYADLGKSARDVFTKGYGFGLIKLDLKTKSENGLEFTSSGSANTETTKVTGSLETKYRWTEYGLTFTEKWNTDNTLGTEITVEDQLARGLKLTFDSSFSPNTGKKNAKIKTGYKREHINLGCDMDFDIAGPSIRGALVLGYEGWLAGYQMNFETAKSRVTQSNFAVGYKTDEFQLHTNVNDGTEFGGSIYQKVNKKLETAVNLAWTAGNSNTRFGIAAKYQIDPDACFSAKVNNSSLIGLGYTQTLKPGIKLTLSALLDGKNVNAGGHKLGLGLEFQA

- Ka: 2430 M⁻¹
B1: recombinant plasminogen Kringle 5 (domain or fragment, human)
chain: DCMFGNGKGYRGKRATTVTGTPCQDWAAQEPHRHSIFTPETNPRAGLEKNYCRNPDGDVGGPWCYTTNPRKLYDYCDVPQCAAP
notes: fifth kringle domain of plasminogen, about 80 amino acid residues; expressed from pET-28b-hK5; band at about 8 kDa on SDS-PAGE; The vector pET-28b-hK5 was built in the authors' laboratory; neither the residue limits nor the end of the 6 x His tag are told; also called hK5; source: E. coli BL21 (DE3), soluble, purified (Ni2+-chelated Sepharose 6 Fast Flow, Sephadex G-25)
